Source: patent US20150051136A1 (US Dept. of Health and Human Services, published 2015)

Molecular target: T1, sRAGE^CHO(N25T/N81T) (human, UniProt Q15109 26-340)
T1 construct: also called sRAGE (N25T/N81T); N25T/N81T mutant
Assay: BIAcore SPR, sRAGE amine-coupled to CM5 chip, S100B as analyte, steady state model

T1 sequence (Q15109 other isoform, or with tags, fused parts or gaps N25T N81T N25T N81T): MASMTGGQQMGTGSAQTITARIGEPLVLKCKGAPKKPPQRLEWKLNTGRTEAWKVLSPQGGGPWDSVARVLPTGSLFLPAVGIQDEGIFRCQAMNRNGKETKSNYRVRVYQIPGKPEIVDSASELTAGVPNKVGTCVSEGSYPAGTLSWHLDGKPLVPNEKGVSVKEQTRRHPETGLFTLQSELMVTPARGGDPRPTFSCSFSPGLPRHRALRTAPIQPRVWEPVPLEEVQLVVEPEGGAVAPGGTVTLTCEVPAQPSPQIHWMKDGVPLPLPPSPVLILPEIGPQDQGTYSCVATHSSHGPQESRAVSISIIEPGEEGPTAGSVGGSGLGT

Kd: 13.6 nM
B1: S100B (ligand)
chain: MSELEKAMVALIDVFHQYSGREGDKHKLKKSELKELINNELSHFLEEIKEQEVVDKVMETLDNDGDGECDFQEFMAFVAMVTTACHEFFEHE
